Test results from patent US12466859B2, “Desmoglein 2 (DSG2) binding proteins and uses therefor” (UNIVERSITY OF WASHINGTON THROUGH ITS CENTER FOR …, priority 2013, dated 2025).
“Also recorded” adds a separate entry of the source.

Experiments:
[1] = Blood chemistry and blood cell counts after i.v. injection; format: in vivo, hDSG2 transgenic mice; details: for Blood chemistry / Lymphocyte and platelet number after injection: after i.v. injection, 2 mg/kg
Experimental: (§1) FIG. 11A-11C. Pharmacokinetics, toxicity, and immunogenicity of JO-4. FIG. 11A) Serum clearance of JO-1 and JO-4. hDSG2 transgenic mice with subcutaneous TC1-hDSG2 tumors (˜600 mm^3) were intravenously injected with JO-1 or JO-4 (2 mg/kg) and serum samples were analyzed for by ELISA. N=3. Note that the y-axis has a log scale. FIG. 11B1) Lymphocyte and FIG. 11B2) platelet counts in hDSG2/TC1-hDSG2 transgenic mice after JO-1 or JO-4 injection. N=3. FIG. 11C) Therapy studies in immunocompetent hDSG2 transgenic mice with TC1-hDSG2 tumors. When tumors reached a volume of ˜80 mm^3, JO-1 or JO-4 (2 mg/kg) or PBS was injected intravenously followed one hour later by PLD/Doxil (i.v. 1.5 mg/kg). Treatment was repeated as indicated by arrows. Tumors were then allowed to re-grow for about two weeks. From day 15 on serum anti-JO-1/J)—4 antibodies were detectable by ELISA. Two more treatment cycles were performed at day 28 and day 35. […] The difference between JO-1/PLD vs JO-4/PLD is significant from day 31 on. N=10.
Two of the affinity enhanced version of JO-1, Y293D and V250F were analyzed in in vivo assay. We called these mutants JO-2 and JO-4, respectively. The first study was performed in a xenograft model derived from A549 cells similar to the study described for FIG. 5B. […] Additional studies were performed in xenograft tumors derived from ovc316 cells (30, 32). Ovc316 cells are Her2/neu positive epithelial tumor cells derived from an ovarian cancer biopsy. These cells can undergo EMT and the reverse process, mesenchymal-to-epithelial-transition (MET), under specific conditions in vitro and in vivo. A subfraction of ovc316 cells that is positive for Nanog, CD133, and E-cadherin is enriched for cancer stem cells, i.e. self-renewing cells with pluripotent potential and tumor forming ability (30). Ovc316 cells therefore closely model the heterogeneity and plasticity seen in tumors in situ. […] Finally, we tested JO-4 in a model for triple-negative breast cancer (TNBC). TNBC is characterized by a lack or minimal expression of estrogen receptor (ER), progesterone receptor (PR) and the absence of Her2/neu overexpression. TNBC accounts for 15% of all breast cancers. Overall survival is poor compared with that in patients who have other phenotypes. A characteristic feature of TNBC is high levels of DSG2 and epithelial junctions. Promising clinical results in the treatment of TNBS have been achieved with nanoparticle, albumin-conjugated paclitaxel (nab-paclitaxel/Abraxane™) alone or in combination with the EGFR-targeting mAb cetuximab/Erbitux™ (38). […] Because of its therapeutic relevance, we further studied JO-4 in an adequate mouse tumor model. […] These mice were subcutaneously implanted with syngeneic TC1-hDSG tumors. When tumors reached a volume of ˜600 mm^3, JO-1 or JO-4 was intravenously injected for safety and efficacy studies. […] After one hour post-injection JO-1 and JO-4 concentration reached a plateau with −100 ng/ml. We also analyzed hematological parameters after i.v. JO-1 and JO-4 injection.

ovc316 xenograft tumors = experiment: Enhancement of PLD therapy in ovc316 ovarian cancer xenograft tumors; format: in vivo, CB17 mice; details: weekly
Experimental: (§2) FIG. 10A-10C. Combination of affinity-enhanced JO-1 versions with chemotherapy. FIG. 10A) Enhancement of irinotecan (I) therapy. The experimental setting was the same as in FIG. 5B. […] N=5. […] Mammary fat pad tumors were established from primary ovarian cancer ovc316 cells. Treatment was started when tumors reached a volume of 100 mm^3. Mice were injected intravenously with 2 mg/kg JO-1 or with 0.5 mg/kg JO-4, followed by an intravenous injection of PEGylated liposomal doxorubicin (PLD) (1 mg/kg) one hour later. Treatment was repeated weekly. […] A total of 4×10^6 TNBC MDA-MB-231 cells were injected into the mammary fat pad of CB17 SCID-beige mice. JO-4 (2 mg/kg) was intravenously injected 1 hour before the application of cetuximab (C) (10 mg/kg, i.p.) and nab-paclitaxel (nab-P) (5 mg/kg, i.v.). Treatment was given weekly. N=10 P<0.01 at day 25 for nab-P+C vs JO-4+nab-P+C.
A549, MDA-MB-231, and ovc316 xenograft tumors were established by injection of the corresponding tumor cells into the mammary fat pad (1:1 with Matrigel) of CB17 mice. TC1-DSG2 tumors were established by subcutaneous injection of TC1-DSG2 cells into DSG2 transgenic mice. […] Tumor volumes were measured three times a week. […]

[2] = Serum clearance of JO-1 and JO-4 by ELISA; format: in vivo, hDSG2 transgenic mice; details: 2 mg/kg i.v.; mice with TC1-hDSG2 tumors
Experimental: as §1
Two of the affinity enhanced version of JO-1, Y293D and V250F were analyzed in in vivo assay. We called these mutants JO-2 and JO-4, respectively. The first study was performed in a xenograft model derived from A549 cells similar to the study described for FIG. 5B. […] We also analyzed hematological parameters after i.v. JO-1 and JO-4 injection.

A549 xenograft tumors = experiment: Enhancement of irinotecan therapy in A549 xenograft tumors; format: in vivo, CB17-SCID/beige mice; details: 2 mg/kg i.v. one hour before irinotecan 37.5 mg/kg i.v.; tumor volume
Experimental: FIG. 5A-5B. Correlation of reduced DSG2 binding with the ability to open epithelial junctions. FIG. 5A) Transepithelial electrical resistance (TEER) measured on polarized colon cancer T84 cells. Cells were cultured in transwell chambers until the TEER was constant, i.e. tight junctions had formed. A total of 5 μg of dimeric Ad3 fiber knobs in PBS was then added for 1 hour to the apical chamber. TEER was measured at the indicated time points. N=6. For time points 1.5 and 4 hours the difference between JO-1 vs D261N and N186D was significant (p<0.01). The arrows indicate the addition and removal of Ad3 fiber knobs. FIG. 5B) Enhancement of irinotecan therapy. A total of 4×10^6 A549 cells were injected subcutaneously into CB17-SCID/beige mice. Once the tumor reached a volume of ˜100 mm^3 (day 15 after implantation), the mice were injected intravenously with 2 mg/kg JO-1, E299V, N186D, or PBS, followed by an intravenous injection of irinotecan (37.5 mg/kg) one hour later. The treatment was repeated on day 25. N=5. […] The difference between “irinotecan” vs “JO-1+irinotecan” was significant (p<0.01) from day 20 on.
as §2
A549, MDA-MB-231, and ovc316 xenograft tumors were established by injection of the corresponding tumor cells into the mammary fat pad (1:1 with Matrigel) of CB17 mice. TC1-DSG2 tumors were established by subcutaneous injection of TC1-DSG2 cells into DSG2 transgenic mice. JO-0, JO-1, JO-2, or JO-4 were intravenously injected one hour before the application of chemotherapeutic drugs: Irinotecan/Camptosar™ (Pfizer Inc., Groton, CT), PEGylated liposomal doxorubicin/Lipodox™ (Sun Pharmaceuticals IN, India), cetuximab/Erbitux™ (ImClone, Somerville, NJ), nanoparticle albumin conjugated paclitaxel/Abraxane” (Abraxis Biosciences, Summit, NJ). Tumor volumes were measured three times a week. Each treatment group consisted of a minimum of 5 mice.

B1: JO-1: dimeric protein that contains the wild-type Ad3 fiber knob and a self-dimerization domain (SEQ ID NO:27) (protein, listed as Homo sapiens)
chain: MKVSALKEKVSALKEKVSALKEKVSALKEKVSALKEGSGGGSGGGSGGGSNSIALKNNTLWTGPKPEANCIIEYGKQNPDSKLTLILVKNGGIVNGYVTLMGASDYVNTLFKNKNVSINVELYFDATGHILPDSSSLKTDLELKYKQTADFSARGFMPSTTAYPFVLPNAGTHNENYIFGQCYYKASDGALFPLEVTVMLNKRLPDSRTSYVMTFLWSLNAGLAPETTQATLITSPFTFSYIREDD
modifications: dimer
With B1 the Blood chemistry [1] was “did not show abnormal changes”, the “Lymphocyte and platelet number after injection” value [1] was “decreased early after injection” and the “Enhancement of PLD therapy” value (ovc316 xenograft tumors; 2 mg/kg i.v. one hour before PLD 1 mg/kg) was “significantly increased the treatment efficiency”. The “Decline of serum concentration within an hour after injection” value [2] was “declined more than one order of magnitude” and the “Enhancement of irinotecan therapy” value (A549 xenograft tumors) was “enhanced irinotecan therapy; also recorded: significant”.

B2: JO-4 (protein)
chain: MKVSALKEKVSALKEKVSALKEKVSALKEKVSALKEGSGGGSGGGSGGGSNSIALKNNTLWTGPKPEANCIIEYGKQNPDSKLTLILVKNGGIVNGYVTLMGASDYVNTLFKNKNVSINVELYFDATGHILPDSSSLKTDLELKYKQTADFSARGFMPSTTAYPFVLPNAGTHNENFIFGQCYYKASDGALFPLEVTVMLNKRLPDSRTSYVMTFLWSLNAGLAPETTQATLITSPFTFSYIREDD
In the case of B2, the “Lymphocyte and platelet counts at nadir compared with JO-1” value ([1]; 24 hours p.i., p<0.01) is reported as “significantly lower numbers”, the Blood chemistry [1] is reported as “did not show abnormal changes” and the “Lymphocyte and platelet number after injection” value [1] is reported as “decreased early after injection; also recorded: transient reduction”. For the same molecule, the “Return of lymphocyte and platelet counts to normal levels” value ([1]; compared with JO-1 treated animals) was “faster”, the “Enhancement of PLD therapy” value (ovc316 xenograft tumors; 0.5 mg/kg i.v. one hour before PLD 1 mg/kg) was “enhances PLD therapy” and the “Decline of serum concentration within an hour after injection” value [2] was “declined more than one order of magnitude; also recorded: significantly greater; also recorded: rapidly decrease”. The “Enhancement of irinotecan therapy” value (A549 xenograft tumors) was “significantly more than JO-1; also recorded: significantly more efficient than JO-2”.
